Ends that are not written are not given here.
T1: ClpA D1 pore-2 loop variant QTQ (AAS 295–297 to QTQ), hexamer (E. coli, UniProt P0ABH9 1-758, M169T | 295–297 AAS to QTQ)
T1 sequence: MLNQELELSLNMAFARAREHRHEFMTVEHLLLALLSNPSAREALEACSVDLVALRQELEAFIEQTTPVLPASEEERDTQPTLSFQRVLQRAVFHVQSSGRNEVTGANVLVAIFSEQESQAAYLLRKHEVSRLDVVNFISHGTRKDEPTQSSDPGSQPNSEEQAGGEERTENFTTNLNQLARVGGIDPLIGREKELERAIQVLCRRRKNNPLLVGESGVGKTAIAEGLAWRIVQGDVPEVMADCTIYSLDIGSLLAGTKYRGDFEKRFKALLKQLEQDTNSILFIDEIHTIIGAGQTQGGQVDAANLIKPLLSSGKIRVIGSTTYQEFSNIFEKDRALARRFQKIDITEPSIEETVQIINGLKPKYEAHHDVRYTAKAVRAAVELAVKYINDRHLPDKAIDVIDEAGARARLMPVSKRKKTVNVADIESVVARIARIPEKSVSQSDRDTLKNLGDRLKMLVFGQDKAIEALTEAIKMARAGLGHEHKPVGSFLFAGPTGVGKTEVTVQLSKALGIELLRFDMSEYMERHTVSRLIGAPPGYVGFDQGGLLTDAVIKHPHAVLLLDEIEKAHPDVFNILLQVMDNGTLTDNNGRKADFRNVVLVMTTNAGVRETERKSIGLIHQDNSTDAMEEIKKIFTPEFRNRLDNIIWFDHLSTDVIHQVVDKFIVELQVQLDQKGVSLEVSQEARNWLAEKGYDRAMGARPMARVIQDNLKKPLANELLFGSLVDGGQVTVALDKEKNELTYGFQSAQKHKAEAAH

T2: ClpA D1 pore-2 loop variant GGG (AAS 295–297 to GGG), hexamer (E. coli, UniProt P0ABH9 1-758, M169T | 295–297 AAS to GGG)
T2 sequence: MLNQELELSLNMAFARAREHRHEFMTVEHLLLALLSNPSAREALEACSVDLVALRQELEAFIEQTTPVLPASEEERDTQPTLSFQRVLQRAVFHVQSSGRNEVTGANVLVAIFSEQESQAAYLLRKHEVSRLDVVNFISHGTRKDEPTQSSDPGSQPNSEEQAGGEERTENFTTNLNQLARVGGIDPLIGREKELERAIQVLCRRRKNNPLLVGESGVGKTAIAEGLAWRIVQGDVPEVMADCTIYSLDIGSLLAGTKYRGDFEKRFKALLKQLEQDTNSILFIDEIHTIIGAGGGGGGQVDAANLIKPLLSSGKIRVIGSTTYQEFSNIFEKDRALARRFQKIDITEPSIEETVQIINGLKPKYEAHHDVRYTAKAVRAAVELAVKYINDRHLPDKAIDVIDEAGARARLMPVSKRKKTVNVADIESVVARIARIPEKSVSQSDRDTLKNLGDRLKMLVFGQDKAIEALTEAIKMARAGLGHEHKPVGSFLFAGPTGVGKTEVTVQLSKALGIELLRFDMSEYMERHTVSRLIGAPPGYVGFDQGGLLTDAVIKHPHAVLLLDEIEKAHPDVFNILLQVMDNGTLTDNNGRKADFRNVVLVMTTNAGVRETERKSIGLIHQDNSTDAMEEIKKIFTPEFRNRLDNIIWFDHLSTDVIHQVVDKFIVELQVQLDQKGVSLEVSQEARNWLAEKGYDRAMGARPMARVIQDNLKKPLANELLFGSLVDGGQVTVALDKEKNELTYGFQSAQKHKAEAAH

T3: ClpA D1 pore-2 loop variant KYR (AAS 295–297 to KYR), hexamer (E. coli, UniProt P0ABH9 1-758, M169T | 295–297 AAS to KYR)
T3 sequence: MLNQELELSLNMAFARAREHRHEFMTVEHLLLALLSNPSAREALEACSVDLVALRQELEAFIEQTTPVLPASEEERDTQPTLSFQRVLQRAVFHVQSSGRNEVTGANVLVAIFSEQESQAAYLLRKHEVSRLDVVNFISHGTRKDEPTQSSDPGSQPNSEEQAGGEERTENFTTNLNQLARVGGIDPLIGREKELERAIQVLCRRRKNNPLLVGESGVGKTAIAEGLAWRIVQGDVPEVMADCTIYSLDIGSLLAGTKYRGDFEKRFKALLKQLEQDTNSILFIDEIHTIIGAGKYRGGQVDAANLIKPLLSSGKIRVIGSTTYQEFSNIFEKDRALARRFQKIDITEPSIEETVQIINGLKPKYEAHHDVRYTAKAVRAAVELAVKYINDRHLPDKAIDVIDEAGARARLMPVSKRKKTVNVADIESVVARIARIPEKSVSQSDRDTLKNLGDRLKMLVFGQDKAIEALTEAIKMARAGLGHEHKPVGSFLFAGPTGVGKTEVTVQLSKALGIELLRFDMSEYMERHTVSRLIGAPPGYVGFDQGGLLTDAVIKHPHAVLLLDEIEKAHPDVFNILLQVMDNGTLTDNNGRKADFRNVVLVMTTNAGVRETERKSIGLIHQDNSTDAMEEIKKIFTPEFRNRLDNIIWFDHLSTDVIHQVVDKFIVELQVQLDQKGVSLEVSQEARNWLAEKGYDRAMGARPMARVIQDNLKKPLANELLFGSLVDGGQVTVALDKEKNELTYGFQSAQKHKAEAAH

T4: ClpA D1 pore-2 loop variant Δ295–297, hexamer (E. coli, UniProt P0ABH9 1-758, M169T | Δ295–297)
T4 sequence: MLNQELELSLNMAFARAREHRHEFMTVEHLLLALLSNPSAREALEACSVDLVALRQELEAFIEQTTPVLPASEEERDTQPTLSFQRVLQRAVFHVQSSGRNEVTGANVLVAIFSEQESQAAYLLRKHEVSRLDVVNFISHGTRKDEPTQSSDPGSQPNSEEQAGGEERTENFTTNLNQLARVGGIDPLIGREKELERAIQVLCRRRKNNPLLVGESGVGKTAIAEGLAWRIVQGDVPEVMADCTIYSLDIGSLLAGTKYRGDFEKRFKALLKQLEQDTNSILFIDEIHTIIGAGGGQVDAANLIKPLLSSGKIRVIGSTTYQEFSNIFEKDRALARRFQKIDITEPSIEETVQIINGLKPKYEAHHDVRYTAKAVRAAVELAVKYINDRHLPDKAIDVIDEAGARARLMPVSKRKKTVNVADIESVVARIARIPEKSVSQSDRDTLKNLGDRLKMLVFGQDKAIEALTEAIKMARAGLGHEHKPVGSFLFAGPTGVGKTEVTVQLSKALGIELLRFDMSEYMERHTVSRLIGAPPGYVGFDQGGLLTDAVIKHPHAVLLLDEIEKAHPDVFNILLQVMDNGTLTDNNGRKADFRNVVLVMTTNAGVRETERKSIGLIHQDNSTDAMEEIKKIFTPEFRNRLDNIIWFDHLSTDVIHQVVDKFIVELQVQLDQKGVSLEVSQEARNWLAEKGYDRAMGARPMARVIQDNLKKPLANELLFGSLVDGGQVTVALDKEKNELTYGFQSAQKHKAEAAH

T5: ClpS adaptor (E. coli, UniProt P0A8Q6 1-106)
T5 chain: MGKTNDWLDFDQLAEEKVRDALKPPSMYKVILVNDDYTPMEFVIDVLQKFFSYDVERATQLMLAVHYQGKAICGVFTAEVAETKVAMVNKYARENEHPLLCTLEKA


How the values were obtained:
[1] = target: T1, ClpA D1 pore-2 loop variant QTQ (AAS …); test: FP; equimolar ClpA6 + ClpS titrated against N-degron peptide
[2] = target: T2, ClpA D1 pore-2 loop variant GGG (AAS …); test: as above
[3] = target: T3, ClpA D1 pore-2 loop variant KYR (AAS …); test: as above
[4] = target: T4, ClpA D1 pore-2 loop variant Δ295–297, …; test: as above
[5] = target: T6, ClpA (laboratory 'wild-type' ClpA carrying M169T), hexamer (E. coli, UniProt P0ABH9 1-758, M169T); test: as above
[6] = target: T1, ClpA D1 pore-2 loop variant QTQ (AAS …); test: FP
[7] = target: T2, ClpA D1 pore-2 loop variant GGG (AAS …); test: FP
[8] = target: T3, ClpA D1 pore-2 loop variant KYR (AAS …); test: FP
[9] = target: T4, ClpA D1 pore-2 loop variant Δ295–297, …; test: FP
[10] = target: T5, ClpS adaptor; test: FP
[11] = target: T6, ClpA (laboratory 'wild-type' ClpA …); test: FP

| Binder | Kd [1] [nM] | Kd [2] [nM] | Kd [3] [nM] | Kd [4] [nM] | Kd [5] [nM] | Kd [6] [nM] | Kd [7] [nM] | Kd [8] [nM] | Kd [9] [nM] | Kd [10] [nM] | Kd [11] [nM] |
| --- | --- | --- | --- | --- | --- | --- | --- | --- | --- | --- | --- |
| ClpS•N-degron peptide complex (ClpS with LLYVQRDSKEC-fluorescein) (complex, fluorescein (printed as LLYVQRDSKEC-fluorescein)) chain 1: MGKTNDWLDFDQLAEEKVRDALKPPSMYKVILVNDDYTPMEFVIDVLQKFFSYDVERATQLMLAVHYQGKAICGVFTAEVAETKVAMVNKYARENEHPLLCTLEKA chain 2: LLYVQRDSKEC | 65 | 41 | 73 | 44 | 56 | – | – | – | – | – | – |
| LLYVQRDSKEC-fluorescein (not fully specified (residue 11); printed as LLYVQRDSKEC-fluorescein) [LLYVQRDSKEC-fluorescein N-degron synthetic peptide] | – | – | – | – | – | 900 | 670 | 550 | 1200 | 2600 | 1200 |

Source: paper PMC9663308 (2022)
